Data taken from patent US20210032313A1 (Daiichi Sankyo, published 2021).
Changes are numbered by the printed parent chain. Values belong to the binder of their own block, whether it stands above or below them.

Tests used:
bChymotrypsin = experiment: fluorogenic peptide substrate cleavage, 1 µM inhibitor
Experimental: FIG. 3A includes graphs to evaluate the cross-reactivity of each inhibitory peptide with proteases, using the degradation of a peptide substrate as an index. For evaluating the Bovine trypsin inhibitory activity, trypsin (Pierce, 20233) with a final concentration of 5 nM and a substrate peptide Boc-Val-Pro-Arg-AMC (R&D Systems, Inc., ES011) with a final concentration of 100 μM were used. For evaluating the Human trypsin inhibitory activity, trypsin (Sigma-Aldrich Co. LLC, T6424) with a final concentration of 1 nM and a substrate peptide Boc-Val-Pro-Arg-AMC (R&D Systems, Inc., ES011) with a final concentration of 100 μM were used. For evaluating the Bovine α-chymotrypsin inhibitory activity, chymotrypsin (Worthington Biochemical Corporation, LS001434) with a final concentration of 10 nM and a substrate peptide Suc-Leu-Leu-Val-Tyr-MCA (PEPTIDE […], INC., 3120-v) with a final concentration of 100 μM were used.
The specificities for other proteases were evaluated using the degradation of a substrate peptide as an index. As in the method described in (3-1), 25 μL each of a protease and a sample diluted with an assay buffer were mixed (to a final concentration of sample of 1 μM), followed by a reaction at 37° C. for 20 minutes. Thereafter, 50 μL of a substrate diluted with an assay buffer was added thereto, and the fluorescence signal was measured using Enspire (PerkinElmer). An assay buffer (50 mM Tris, 150 mM NaCl, pH 8.0) was used for the evaluation of the protease activity, and a PROTEOSAVE® SS96F black plate (Sumitomo Bakelite Co., Ltd.) was used for the reaction and the measurement. The combinations of the protease and the substrate used for the evaluation of the specificity were as follows.

human KLK5 = target: T1, human KLK5 (human, UniProt Q9Y337 67-293); experiment: SPR, BIAcore T200; biotinylated KLK5 captured on chip, peptide as analyte; single cycle kinetics, 1:1 model
T1 construct: also called hKLK5; active KLK5; not shown: C-terminal tag with His tag, encoded by primers 3/4
T1 sequence: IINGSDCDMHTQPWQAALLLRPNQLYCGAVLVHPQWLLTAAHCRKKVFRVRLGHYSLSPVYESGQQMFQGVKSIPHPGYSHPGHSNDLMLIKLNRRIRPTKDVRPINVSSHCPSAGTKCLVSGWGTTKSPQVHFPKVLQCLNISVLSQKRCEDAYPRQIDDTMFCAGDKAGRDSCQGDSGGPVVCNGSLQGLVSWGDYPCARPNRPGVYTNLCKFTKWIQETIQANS
Experimental: In order to measure the binding affinity of the KLK5 inhibitory peptides, surface plasmon resonance analysis was conducted using BIAcore T 200 (GE healthcare). A complementary strand of DNA of a streptavidin conjugate was captured by hybridization on Sensor Chip CAP (GE healthcare) on which single-stranded DNA immobilized. Next, KLK5 biotinylated using EZ-Link NHS-PEG4-Biotin (Thermo Fisher Scientific) was captured at a flow rate of 10 μL/min to immobilize about 10 RU. Thereafter, the KLK5 inhibitory peptide, serially diluted 2-fold with HBS-EP (0.625 to 10 nM), was added thereto as an analyte at a flow rate of 30 μL/min. In the BIAcore T 200 Evaluation software (version 2.0), kon and koff were calculated by analysis using Single cycle kinetics in a simple one-to-one Langmuir binding model. The dissociation constant KD was calculated as a ratio of koff/kₒₙ. Further, multiple KLK5 inhibitory peptides were measured by regenerating Sensor Chip CAP using a Regeneration buffer attached to a Biotin CAPture Kit (GE healthcare) and repeatedly capturing biotinylated KLK5.

binding result (bChymotrypsin): binds
Kd (human KLK5): ≤ 1 pM
koff (human KLK5): ≤ 1e-06 s⁻¹
kon (human KLK5): 940000 M⁻¹ s⁻¹
B1: KLK5/KLK14 inhibitory peptide K51069 (peptide)
chain: GPQFGLFSKYRTPNCSQVVETYCNRDYDPVCGSDMSTYANECTLCMKIREGGHNIKIIRNGPCGG
notes: SPINK2 mutant peptide made in E. coli

binding result (bChymotrypsin): binds
Kd (human KLK5): ≤ 1.1 pM
koff (human KLK5): ≤ 1e-06 s⁻¹
kon (human KLK5): 940000 M⁻¹ s⁻¹
B2: KLK5/KLK14 inhibitory peptide K50015 (peptide)
chain: B1 chain with S16Y, Q17D, V18T, V19T, E20T, T21H, N24S, D26E
notes: as for B1
